Patent US20090035321A1, “Intercellular adhesion molecules and their binding ligands” (Boehringer Ingelheim Pharmaceuticals, Inc., published 2009)

Columns and labels:
Assay in all cases: COS cells on LFA-1 coated plastic
[1] = biological target: ICAM-1 A115N/SV (printed A155N/SV at paragraph 410) (human) (UniProt P05362)
[2] = biological target: ICAM-1 K8/E (human, UniProt P05362)
[3] = biological target: ICAM-1 G101K/AN (human, UniProt P05362)
[4] = biological target: ICAM-1 T75/A (human, UniProt P05362)
[5] = biological target: ICAM-1 R88V/EA (human, UniProt P05362)
[6] = biological target: ICAM-1 Q62PM/API (human, UniProt P05362)
[7] = biological target: ICAM-1 E127/R (human, UniProt P05362)
[8] = biological target: ICAM-1 R166PQ/EPA (human, UniProt P05362)
[9] = biological target: ICAM-1 Q58EDS/AKDI (human, UniProt P05362)
[10] = biological target: ICAM-1 Q73/H (human, UniProt P05362)
[11] = biological target: ICAM-1 K128/R (human, UniProt P05362)
[12] = biological target: ICAM-1 S177/G (human, UniProt P05362)
[13] = biological target: ICAM-1 S61/I (human, UniProt P05362)
[14] = biological target: ICAM-1 S3VS/AGL (human, UniProt P05362)
[15] = biological target: ICAM-1 K50V/EL (human, UniProt P05362)
[16] = biological target: ICAM-1 D71/E (human, UniProt P05362)
[17] = biological target: ICAM-1 D229QR/HLE (human, UniProt P05362)
[18] = biological target: ICAM-1 N118/Q (human, UniProt P05362)
[19] = biological target: Intercellular Adhesion Molecule-1 (ICAM-1), wild type, on the cell surface (human) (UniProt P05362)
[20] = biological target: ICAM-1 E59/Q (human, UniProt P05362)
[21] = biological target: ICAM-1 N175TSA/QTLG (human, UniProt P05362)
[22] = biological target: ICAM-1 D203TQ/TAD (human, UniProt P05362)
[23] = biological target: ICAM-1 S5/T (human) (UniProt P05362)
[24] = biological target: ICAM-1 E90/K (human, UniProt P05362)
[25] = biological target: ICAM-1 R49KV/EKL (human, UniProt P05362)
[26] = biological target: ICAM-1 N156/E (human, UniProt P05362)
[27] = biological target: ICAM-1 Q1T/KA (human, UniProt P05362)
[28] = biological target: ICAM-1 D60/Q (human, UniProt P05362)
[29] = biological target: ICAM-1 D60/K (human, UniProt P05362)
[30] = biological target: ICAM-1 M64/I (human, UniProt P05362)
[31] = biological target: ICAM-1 N56V/HM (human, UniProt P05362)
[32] = biological target: ICAM-1 Q58/H (human, UniProt P05362)
[33] = biological target: ICAM-1 D26QPK/ALPE (human, UniProt P05362)
[34] = biological target: ICAM-1 D60S/KL (human, UniProt P05362)
[35] = biological target: ICAM-1 A178/G (human, UniProt P05362)
[36] = biological target: ICAM-1 Q1/K (human, UniProt P05362)
[37] = biological target: ICAM-1 T20CS/ACT (human, UniProt P05362)
[38] = biological target: ICAM-1 H152HGA/EEGS (human, UniProt P05362)
[39] = biological target: ICAM-1 D71/N (human, UniProt P05362)
[40] = biological target: ICAM-1 E254DE/KEK (human, UniProt P05362)
[41] = biological target: ICAM-1 E111GGA/KAGS (human, UniProt P05362)
[42] = biological target: ICAM-1 N240DS/KNA (human, UniProt P05362)
[43] = biological target: ICAM-1 R13/E (human, UniProt P05362)
[44] = biological target: ICAM-1 K39KE/ERQ (human, UniProt P05362)

With “purified LFA-1, bound to plastic (from UniProt P20701) (receptor)” the LFA-1 Binding % (% of wild type) [1] was 0, the LFA-1 Binding % (% of wild type) [2] was 84 and the LFA-1 Binding % (% of wild type) [3] was 97. It also gave an LFA-1 Binding % (% of wild type) [4] of 59, an LFA-1 Binding % (% of wild type) [5] of 95 and an LFA-1 Binding % (% of wild type) [6] of 104. For the same substance, the LFA-1 Binding % (% of wild type) [7] was 82, the LFA-1 Binding % (% of wild type) [8] was 75 and the LFA-1 Binding % (% of wild type) [9] was 3. For the same substance, the LFA-1 Binding % (% of wild type) [10] was 12, the LFA-1 Binding % (% of wild type) [11] was 109 and the LFA-1 Binding % (% of wild type) [12] was 59. For the same substance, the LFA-1 Binding % (% of wild type) [13] was 59, the LFA-1 Binding % (% of wild type) [14] was 18 and the LFA-1 Binding % (% of wild type) [15] was 29. It also gave an LFA-1 Binding % (% of wild type) [16] of 118, an LFA-1 Binding % (% of wild type) [17] of 90 and an LFA-1 Binding % (% of wild type) [18] of 54. The % of COS cells bound (mean) [19] was 33%, the LFA-1 Binding % (% of wild type) [20] was 84 and the LFA-1 Binding % (% of wild type) [21] was 26. It also gave an LFA-1 Binding % (% of wild type) [22] of 91, an LFA-1 Binding % (% of wild type) [23] of 104 and an LFA-1 Binding % (% of wild type) [24] of 34. It also gave an LFA-1 Binding % (% of wild type) [25] of 123, an LFA-1 Binding % (% of wild type) [26] of 60 and an LFA-1 Binding % (% of wild type) [27] of 119. The LFA-1 Binding % (% of wild type) [28] was 18, the LFA-1 Binding % (% of wild type) [29] was 14 and the LFA-1 Binding % (% of wild type) [30] was 111. It also gave an LFA-1 Binding % (% of wild type) [31] of 121, an LFA-1 Binding % (% of wild type) [32] of 109 and an LFA-1 Binding % (% of wild type) [33] of 30. For the same substance, the LFA-1 Binding % (% of wild type) [34] was 1, the LFA-1 Binding % (% of wild type) [35] was 59 and the LFA-1 Binding % (% of wild type) [36] was 97. It also gave an LFA-1 Binding % (% of wild type) [37] of 91, an LFA-1 Binding % (% of wild type) [38] of 85 and an LFA-1 Binding % (% of wild type) [39] of 79. For the same substance, the LFA-1 Binding % (% of wild type) [40] was 122, the LFA-1 Binding % (% of wild type) [41] was 103 and the LFA-1 Binding % (% of wild type) [42] was 147. The LFA-1 Binding % (% of wild type) [43] was 1 and the LFA-1 Binding % (% of wild type) [44] was 99.
